According to publication PMC6775164:
“And” between values parts separate entries of the source, which are not always exact repeats. Equal entries are not always repeated.

Assays:
[1] = target: P74-26 decoration protein (gene product 87) (bacteriophage P74-26); experiment: cryo-EM structure; single-particle reconstruction of the capsid of purified P74-26 virions with icosahedral symmetry imposed; virions in 50 mM Tris pH 8.0, 10 mM NaCl, 10 mM MgCl2; 2.8 Å (0.143 FSC)
[2] = target: P74-26 major capsid protein (gene product 86) (bacteriophage P74-26); experiment: as above

| Substance | stoichiometry N [1] | stoichiometry N [2] |
| --- | --- | --- |
| P74-26 decoration protein (gene product 87) (natural protein) | 3 | – |
| P74-26 major capsid protein (gene product 86) (natural protein) | – | 5 and 6 |
